Reference: patent publication US20250019452A1 (Sanofi, published 2025)

What was measured:
IL-1R3 = target: T1, IL-1R3 (human, UniProt Q9NPH3 21-570); experiment: cell-based or functional assay
T1 sequence (looked up): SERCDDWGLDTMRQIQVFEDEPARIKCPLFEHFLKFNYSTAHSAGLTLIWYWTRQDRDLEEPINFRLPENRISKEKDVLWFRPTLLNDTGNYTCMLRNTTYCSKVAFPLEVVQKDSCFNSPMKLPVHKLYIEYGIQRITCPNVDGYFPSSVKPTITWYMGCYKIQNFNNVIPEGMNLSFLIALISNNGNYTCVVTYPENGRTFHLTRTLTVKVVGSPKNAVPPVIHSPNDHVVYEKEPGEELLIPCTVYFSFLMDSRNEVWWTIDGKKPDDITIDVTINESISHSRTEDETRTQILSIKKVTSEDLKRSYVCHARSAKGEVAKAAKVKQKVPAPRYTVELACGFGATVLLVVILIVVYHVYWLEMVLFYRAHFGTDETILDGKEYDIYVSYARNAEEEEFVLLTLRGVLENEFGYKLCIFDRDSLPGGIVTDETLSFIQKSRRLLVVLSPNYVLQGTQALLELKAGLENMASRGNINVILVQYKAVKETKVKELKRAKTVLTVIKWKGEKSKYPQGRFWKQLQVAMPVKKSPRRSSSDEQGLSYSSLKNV

[1] = target: T2, FcgammaRIIIa (V158) expressed on Jurkat effector cells (UniProt P08637 17-254, limits assumed); experiment: cell based ADCC reporter gene assay, Jurkat FcgammaRIIIa (V158) effector cells with CHO IL1R3 target cells
T2 construct: whole, on cells; also called FcγRIII; Fc receptor of the effector cells
Description: The anti-IL-1R3 antibody in IgG1-LALA and IgG4-P-FALA format was tested for any ADCC activity using a reporter gene assay (iLite ADCC Bioassay #BM5001, SVAR Life Sciences, Malmö). This assay uses reporter-gene-carrying effector cells (Jurkat cells expression FcgammaRIIIa (V158)) that are used in conjunction with target cells that express the specific antigen at constant high levels (i.e. CHO ILIR3 target cells). Binding of the antibody to the target cell and binding of the effector cell to the Fc receptor of the antibody results in expression of the firefly luciferase reporter gene in the effector cell. The promoter of the firefly luciferase in the effector cells includes binding sites for NfkB, AP1, NFAT, CRE and STAT and thus includes the five principal transcription factors of the FcγRIII signal transduction pathway. The effector cells further comprise Renilla luciferase for normalization purposes.

IL8 release_hIL1b & hIL33 & IL36g, rel IC50 in nM (IL-1R3): 8.5 nM
IL8 release_hIL1b & hIL36g, rel IC50 in nM (IL-1R3): 2.38 nM
IL8 release_hIL1 beta, rel IC50 in nM (IL-1R3): 13.4 nM
IL8 release_hIL33, rel IC50 in nM (IL-1R3): 2.34 nM
IL8 release_hIL36g, rel IC50 in nM (IL-1R3): 0.45 nM
binding result [1]: no binding
B1: anti-IL-1R3-IgG4-P-FALA (antibody)
heavy: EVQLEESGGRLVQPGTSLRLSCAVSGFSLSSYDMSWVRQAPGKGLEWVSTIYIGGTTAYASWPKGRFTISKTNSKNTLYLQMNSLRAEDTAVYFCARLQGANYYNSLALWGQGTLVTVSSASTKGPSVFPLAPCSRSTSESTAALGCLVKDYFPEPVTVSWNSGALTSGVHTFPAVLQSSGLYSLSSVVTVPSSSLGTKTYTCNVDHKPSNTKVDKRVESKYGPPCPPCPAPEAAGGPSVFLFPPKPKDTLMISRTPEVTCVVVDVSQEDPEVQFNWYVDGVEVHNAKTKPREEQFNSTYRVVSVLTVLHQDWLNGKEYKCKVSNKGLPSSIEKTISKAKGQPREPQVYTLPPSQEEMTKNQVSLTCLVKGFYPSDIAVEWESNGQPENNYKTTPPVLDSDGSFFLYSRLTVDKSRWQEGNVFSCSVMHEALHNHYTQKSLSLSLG
light: DVQMTQSPSSLSASVGDRVTITCQASQSIYSFLSWYQQKPGQAPKLLIYAASDLESGVPSRFSGSGSGTDFTLTISSLQPEDFATYYCQSNYIIDYGAFGQGTKVVIKRTVAAPSVFIFPPSDEQLKSGTASVVCLLNNFYPREAKVQWKVDNALQSGNSQESVTEQDSKDSTYSLSSTLTLSKADYEKHKVYACEVTHQGLSSPVTKSFNRGEC
notes: Humanized antibody, human IgG4 backbone with S228P, F234A, L235A (EU) in the Fc region; also called anti-IL-1R3 IgG4-P-FALA Ab; aIL-1R3-IgG4; copies: 2 + 2
